From paper PMC8688357 (Frontiers in Microbiology, 2021)

Target: T1, recombinant biotin peptide-6 x His-tagged SARS-CoV-2 N protein (SARS-CoV-2 N-Bio-His6), biotinylated (SARS-CoV-2, UniProt P0DTC9 1-419)
T1 construct: also called recombinant SARS-CoV-2 N fusion protein
Experiment: ELISA
Settings: both partners purified

B1: SARS-CoV-2 Spike CD-Fc (fusion protein containing the SARS-CoV-2 Spike C-terminal domain and the human IgG1 Fc domain) (Fc fusion)
chain: LCCMTSCCSCLKGCCSCGSCCKFDEDDSEPVLKGVKLHYT
notes: also called recombinant SARS-CoV-2 Spike CD fusion protein
  binding result: binds
